Data published in patent publication US20110070184A1, “METHODS AND COMPOSITIONS FOR TREATING ATHEROSCLEROSIS AND RELATED CONDIDTIONS” (CAROLUS THERPEUTICS, INC., priority 2008, published 2011).

T1: CXCR2 (Homo sapiens, UniProt P25025)
T1 construct: expressed in transfected cells
T1 sequence (P25025 1-360): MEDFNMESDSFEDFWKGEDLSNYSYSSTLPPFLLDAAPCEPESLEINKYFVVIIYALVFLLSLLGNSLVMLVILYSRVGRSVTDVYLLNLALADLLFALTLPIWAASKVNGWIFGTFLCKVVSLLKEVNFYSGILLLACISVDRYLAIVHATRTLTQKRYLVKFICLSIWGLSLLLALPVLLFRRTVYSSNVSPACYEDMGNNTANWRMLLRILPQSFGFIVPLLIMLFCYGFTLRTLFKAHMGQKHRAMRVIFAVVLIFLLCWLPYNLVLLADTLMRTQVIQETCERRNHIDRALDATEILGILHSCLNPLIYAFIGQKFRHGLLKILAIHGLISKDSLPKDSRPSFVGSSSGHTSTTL


Tests used:
CXCR4 = CXCR4 (Homo sapiens, UniProt P61073); conditions: data not shown
CXCR4, sequence (P61073 whole entry): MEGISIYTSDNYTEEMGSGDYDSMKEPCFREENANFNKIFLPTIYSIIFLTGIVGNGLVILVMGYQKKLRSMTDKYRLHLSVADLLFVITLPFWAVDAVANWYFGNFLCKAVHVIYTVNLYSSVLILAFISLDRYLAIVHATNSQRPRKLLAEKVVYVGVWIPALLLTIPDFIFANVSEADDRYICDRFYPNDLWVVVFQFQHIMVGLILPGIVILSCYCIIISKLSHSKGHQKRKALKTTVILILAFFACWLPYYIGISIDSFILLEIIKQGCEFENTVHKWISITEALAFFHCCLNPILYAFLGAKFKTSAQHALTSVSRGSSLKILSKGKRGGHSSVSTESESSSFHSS

neutrophil recruitment = experiment: Model of acute MIF-induced peritonitis; assay type: in vivo, mouse; conditions: after 4 h, mice with wild-type bone marrow
Experimental: Model of acute peritonitis. […] After 4 h, peritoneal Iavage was performed and Gr-1^+CD115^−F4/80^− neutrophils were quantified by flow cytometry using the relevant conjugated antibodies.

primary human monocytes [1] = experiment: Transwell chemotaxis of primary monocytes toward MIF; assay type: cell-based
Experimental: (§1) Chemotaxis assays. […] Pore sizes and intervals were 5 μm and 3 h (monocytes), 3 μm and 1.5 h (T cells), and […] and 1 h (neutrophils).

[2] = test system: primary CD3+ T lymphocytes; experiment: Transwell chemotaxis of primary CD3+ T cells toward MIF; assay type: cell-based, human; conditions: primary CD3+ T lymphocytes devoid of CXCR1 and CXCR2
Experimental: as §1

primary human monocytes [3] = experiment: Arrest of primary monocytes on MIF-pretreated human aortic endothelial cells under flow; assay type: cell-based; conditions: aortic endothelial cells pretreated with recombinant MIF for 2 h
Experimental: Adhesion assays. Arrest of calcein-AM (Molecular Probes)-labeled monocytes, T cells and L1.2 transfectants was quantified in parallel-wall chambers in flow (1.5 dynes/cm^2, 5 min) (Schober, A., et al. (2004) Circulation 109, 380-385; Osterman, G., et al. (2002) Nat. Immunol. 3, 151-158; Weber, C., et al. (1996) J. Cell Biol. 134, 1063-1073).

[4] = test system: leukocyte adhesion and emigration in postcapillary venules; experiment: Cremaster microcirculation model, intravital microscopy; assay type: in vivo, mouse; conditions: MIF injected adjacent to the cremaster muscle
Experimental: Cremaster microcirculation model. […] After 4 h, intravital microscopy (Zeiss Axioplan; 20×) was performed in postcapillary venules (Gregory, J. L., et al. (2004) Arthritis Rheum. 50, 3023-3034; Keane, M. P., et al. (2004) J. Immunol. 172, 2853-2860). Adhesion was measured as leukocytes stationary for more than 30 s, emigration as the number of extravascular leukocytes per field.

CXCR2 [5] = molecular target: T1, CXCR2; experiment: Calcium mobilization in L1.2 CXCR2 transfectants (Fluo-4 AM); assay type: cell-based
Description: (§2) Calcium mobilization. Neutrophils or L1.2 CXCR2 transfectants were labeled with Fluo-4 AM (Molecular Probes).

CCR5 = molecular target: T2, CCR5 (Homo sapiens, UniProt P51681); experiment: CCR5 internalization in L1.2 CCR5 transfectants; assay type: cell-based; conditions: data not shown
T2 construct: host or cells: L1.2 (mouse pre-B lymphoma) cells
T2 sequence (P51681 whole entry): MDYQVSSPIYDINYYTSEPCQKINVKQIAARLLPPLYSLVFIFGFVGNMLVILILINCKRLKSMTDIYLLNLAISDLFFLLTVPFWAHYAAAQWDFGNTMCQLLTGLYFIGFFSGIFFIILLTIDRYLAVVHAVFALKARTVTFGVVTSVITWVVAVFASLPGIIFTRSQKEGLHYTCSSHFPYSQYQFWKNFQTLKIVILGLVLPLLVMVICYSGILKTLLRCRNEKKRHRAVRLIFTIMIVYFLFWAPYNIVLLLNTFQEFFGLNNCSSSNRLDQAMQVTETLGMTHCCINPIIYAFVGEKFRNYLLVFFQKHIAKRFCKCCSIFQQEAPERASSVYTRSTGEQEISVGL

CXCR2 [6] = molecular target: T1, CXCR2; experiment: CXCR2 internalization assay in HEK293-CXCR2 transfectants (FACS); assay type: cell-based; conditions: stable HEK293 transfectants
Experimental: CXCR internalization assays. […] Internalization was calculated relative to surface expression of buffer-treated cells (100% control) and isotype control staining (0% control): geometric MFI[experimental]−MFI[0% control]/MFI[100% control]−MFI[0% control]×100.

[7] = test system: primary human neutrophils; experiment: Calcium mobilization in neutrophils (Fluo-4 AM); assay type: cell-based
Description: as §2

Molecule | specific binding of fluorescein-MIF to CXCR4-bearing Jurkat cells (CXCR4) | neutrophil recruitment after intraperitoneal injection (neutrophil recruitment) | MIF concentration that induced optimal chemotaxis (primary human monocytes [1]) | optimum of bell-shaped dose-response curve of induced monocyte migration (primary human monocytes [1]; MIF in lower chamber, primary human PBMC-derived monocytes) | T-cell transmigration [2] | arrest of primary human monocytes under flow conditions (primary human monocytes [3]) | leukocyte adhesion and emigration in postcapillary venules [4] | calcium influx (CXCR2 [5]) | CCR5 internalization (CCR5) | CXCR2 internalization (surface CXCR2 by FACS) (CXCR2 [6]) | calcium influx [7]
c1ccc(CNCc2ccc(CN3CCCNCCNCCCNCC3)cc2)nc1 [AMD3465] | inhibited |  |  |  |  |  |  |  |  |  | 
MIF: Recombinant macrophage migration inhibitory factor, expressed and purified as described (Bernhagen 1993) (protein) PMFIVNTNVPRASVPDGFLSELTQQLAQATGKPPQYIAVHVVPDQLMAFGGSSEPCALCSLHSIGKIGGAQNRSYSKLLCGLLAERLRISPDRVYINYYDMNAANVGWNNSTFA |  | elicited neutrophil recruitment | 2 to 4 nM | 25 to 50 ng/mL | dose-dependently induced transmigration | substantially increased the arrest | marked increase | dose-dependently induced calcium influx | unable to induce CCR5 internalization | induced CXCR2 internalization | induced calcium influx
